Results as given in the supplement of paper PMC7125110.
± gives the standard error. For some assays here: Fewer inactive variants are shown than the library holds.

B1: glmS ribozyme (parent)
chain: AUAAAAGCGCCAGAACUACAGAAAUGUAGUUGACGAGGAGGAGGUUUAUCGAAUUUUCGGCGGAUGCCUCCAAA

Assays:
Conditions in all cases: with glucosamine-6-phosphate
glucosamine-6-phosphate [1] = variants of: B1; assay: kcat; higher = faster cleavage; RNA array
Summary of the method: (§1)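 Barcoded glmS ribozyme variants on sequenced MiSeq chips were transcribed in situ by E. coli RNA polymerase and tracked through a hybridised Cy3 probe at 37 °C. Glucosamine-6-phosphate (40 μM to 10 mM) in HEPES/KCl/Mg(OAc)2 buffer was flowed in, and tiles were imaged over ~14 h. Signals were normalised to baseline and to non-cleaving reference variants; per-tile medians were fit to one- or two-exponential decays to give kobs. kcat and KM came from weighted Michaelis–Menten fits across concentrations.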

glucosamine-6-phosphate [2] = variants of: B1; assay: KM; higher = weaker cofactor use; RNA array
Summary of the method: as §1

glucosamine-6-phosphate [3] = variants of: B1; assay: self-cleavage kobs at 40 uM GlcN6P; higher = faster cleavage; RNA array
Summary of the method: as §1

glucosamine-6-phosphate [4] = variants of: B1; assay: self-cleavage kobs at 160 uM GlcN6P; higher = faster cleavage; RNA array
Summary of the method: as §1

glucosamine-6-phosphate [5] = variants of: B1; assay: self-cleavage kobs at 640 uM GlcN6P; higher = faster cleavage; RNA array
Summary of the method: as §1

glucosamine-6-phosphate [6] = variants of: B1; assay: self-cleavage kobs at 2500 uM GlcN6P; higher = faster cleavage; RNA array
Summary of the method: as §1

glucosamine-6-phosphate [7] = variants of: B1; assay: self-cleavage kobs at 10000 uM GlcN6P; higher = faster cleavage; RNA array
Summary of the method: as §1

| Variant | kcat (glucosamine-6-phosphate [1]) [s⁻¹] | KM (glucosamine-6-phosphate [2]) [µM] | self-cleavage kobs at 40 uM GlcN6P (glucosamine-6-phosphate [3]) [s⁻¹] | self-cleavage kobs at 160 uM GlcN6P (glucosamine-6-phosphate [4]) [s⁻¹] | self-cleavage kobs at 640 uM GlcN6P (glucosamine-6-phosphate [5]) [s⁻¹] | self-cleavage kobs at 2500 uM GlcN6P (glucosamine-6-phosphate [6]) [s⁻¹] | self-cleavage kobs at 10000 uM GlcN6P (glucosamine-6-phosphate [7]) [s⁻¹] |
| --- | --- | --- | --- | --- | --- | --- | --- |
| A53U U54C | 0.00788 ± 0.0015 | 619 ± 200 | 0.000577 ± 7.7e-05 | 0.0012 ± 0.00025 | 0.00401 ± 0.00061 | 0.00897 ± 0.0018 | 0.00704 ± 0.001 |
| A52U U54A | 0.000204 ± 9.2e-06 | 1670 ± 180 | – | – | 5.55e-05 ± 8.3e-06 | 0.000132 ± 2.1e-05 | 0.000172 ± 1.8e-05 |
| A52U U54C | 0.000603 ± 4.5e-05 | 2570 ± 310 | – | 3.57e-05 ± 9.5e-06 | 0.000115 ± 1.9e-05 | 0.000318 ± 5e-05 | 0.000462 ± 8.6e-05 |
| U55A G59A | 6.57e-05 ± 1.4e-05 | – | – | – | – | 5.76e-05 ± 1.7e-05 | 5.69e-05 ± 1.3e-05 |
| U55C U69A | 1.74e-05 ± 6.8e-06 | – | – | – | – | – | – |
| C50U U57G | < 1e-05 | – | – | – | < 1e-05 | – | – |
| U55A A64U | 0.000202 ± 3.2e-05 | 4540 ± 1600 | < 1e-05 | – | – | 7.6e-05 ± 1.1e-05 | 0.000138 ± 1.5e-05 |
| U54G U57G | 3.71e-05 ± 3.7e-06 | 1500 ± 710 | – | – | – | – | 3.21e-05 ± 1.2e-05 |
| U54G U57A | 0.000134 ± 2.6e-05 | 1540 ± 760 | – | – | 3.49e-05 ± 1.2e-05 | 0.000118 ± 3.3e-05 | 0.00011 ± 2.1e-05 |
| U56A U69A | 9.71e-05 ± 1.6e-05 | – | 4e-05 ± 1.1e-05 | 5e-05 ± 1.3e-05 | 8.46e-05 ± 1.2e-05 | 0.000155 ± 2.3e-05 | 8.66e-05 ± 1.1e-05 |
| U54A C68G | 9.86e-05 ± 2.8e-06 | 31 ± 7.5 | 5.44e-05 ± 1.6e-05 | 8.95e-05 ± 2.1e-05 | 8.94e-05 ± 1.3e-05 | 0.000106 ± 1.9e-05 | 9.77e-05 ± 9.3e-06 |
| U55G C58A | 0.000783 ± 0.00021 | 7730 ± 3000 | – | 2.76e-05 ± 1.3e-05 | 6.45e-05 ± 1e-05 | 0.000177 ± 2.2e-05 | 0.000461 ± 6.3e-05 |
| U54C U69A | 0.000112 ± 7.5e-06 | 82 ± 22 | 3.96e-05 ± 1.5e-05 | 6.58e-05 ± 2.2e-05 | 0.000111 ± 3.8e-05 | 0.000123 ± 3.1e-05 | 0.000105 ± 2e-05 |
| A52U A53U | 0.000212 ± 8.7e-06 | 4210 ± 360 | < 1e-05 | – | 2.65e-05 ± 1e-05 | 8.03e-05 ± 1.2e-05 | 0.000148 ± 1.7e-05 |
| A52U C71U | 0.000457 ± 4e-05 | 2130 ± 390 | – | – | 0.0001 ± 1.4e-05 | 0.000275 ± 2.9e-05 | 0.000362 ± 3.4e-05 |
